Patent publication US9718864B2 (HAINAN UNIVERSITY, dated 2017)
No end group written: not given here.

Columns and labels:
Assay in all cases: cell-based or functional assay
[1] = target: rat NMDA receptor NR1-2b/NR2D (rat, UniProt P35439)
[2] = target: rat α7 nAChR (rat, UniProt Q05941)
[3] = target: rat NMDA receptor NR1-2b/NR2A (rat, UniProt P35439)

| Binder | Half-blocking dose IC50 of NMDA receptor current [1] [µM] | Half-blocking dose IC50 of ACh-gated current [2] [µM] | Half-blocking dose IC50 of NMDA receptor current [3] [µM] |
| --- | --- | --- | --- |
| TCRSSGRYCRSPYDRRRRYCRRITDACV (not fully specified; ends and bridges not checked) [αO-conotoxin GeXIVA14] | ≥ 10 |  |  |
| TCRSSGRYCRSPYDRRRRYCRRITDACV (not fully specified; ends and bridges not checked) [αO-conotoxin GeXIVA13] | ≥ 10 | 4.96 | > 10 |
